Measured values: article PMC6284149, “Biochemical, Metabolomic, and Genetic Analyses of Dephospho Coenzyme A Kinase Involved in Coenzyme A Biosynthesis in the Human Enteric Parasite Entamoeba histolytica” (Frontiers in Microbiology, 2018)

What was measured:
EhDPCK2 = target: T1, EhDPCK2 (Entamoeba histolytica, UniProt C4LWC7); assay: inhibition of DPCK activity; assay type: biochemical
T1 construct: gene EHI_155780; expressed in E. coli BL21(DE3), Ni-NTA purified
T1 sequence (C4LWC7 1-204): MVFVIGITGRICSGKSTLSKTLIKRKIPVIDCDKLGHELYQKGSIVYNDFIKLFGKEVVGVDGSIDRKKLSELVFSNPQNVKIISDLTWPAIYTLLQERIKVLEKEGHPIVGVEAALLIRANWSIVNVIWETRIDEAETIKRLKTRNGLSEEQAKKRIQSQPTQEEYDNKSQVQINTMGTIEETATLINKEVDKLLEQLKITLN

EhDPCK1 = target: T2, EhDPCK1 (Entamoeba histolytica, UniProt C4MB67); assay: inhibition of DPCK activity; assay type: biochemical
T2 construct: gene EHI_040840; expressed in E. coli BL21(DE3), Ni-NTA purified
T2 sequence (C4MB67 1-206): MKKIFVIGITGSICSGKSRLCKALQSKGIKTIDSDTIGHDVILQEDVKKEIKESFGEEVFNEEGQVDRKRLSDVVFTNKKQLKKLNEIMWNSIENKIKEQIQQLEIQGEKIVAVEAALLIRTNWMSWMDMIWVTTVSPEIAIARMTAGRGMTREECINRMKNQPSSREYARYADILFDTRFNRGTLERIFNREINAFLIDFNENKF

[1] = substrate: Nc1ncnc2c1ncn2[C@@H]1O[C@H](COP(=O)(O)OP(=O)(O)OP(=O)(O)O)[C@@H](O)[C@H]1O; assay: ADP Hunter Plus coupled fluorescence assay, initial rates, non-linear regression; assay type: biochemical, Entamoeba histolytica; conditions: 128 μM dephospho-CoA; 1-100 μM ATP; 15 mM Hepes, 20 mM NaCl, 1 mM EGTA, 10 mM MgCl2
From the text: (§1) ADP Hunter Plus coupled fluorescence assay, initial rates, non-linear regression on EhDPCK2

[2] = substrate: CC(C)(COP(=O)(O)OP(=O)(O)OC[C@H]1O[C@@H](n2cnc3c(N)ncnc32)[C@H](O)[C@@H]1O)[C@@H](O)C(=O)NCCC(=O)NCCS; assay: as above; assay type: biochemical, Entamoeba histolytica; conditions: 100 μM ATP; 4-128 μM dephospho-CoA; 15 mM Hepes, 20 mM NaCl, 1 mM EGTA, 10 mM MgCl2
From the text: as §1

[3] = substrate: Nc1ncnc2c1ncn2[C@@H]1O[C@H](COP(=O)(O)OP(=O)(O)OP(=O)(O)O)[C@@H](O)[C@H]1O; assay: as above; assay type: biochemical, Entamoeba histolytica; conditions: 128 μM dephospho-CoA; 1-100 μM ATP; 15 mM Hepes, 20 mM NaCl, 1 mM EGTA, 10 mM MgCl2; remark: listed apart in the source
From the text: (§2) ADP Hunter Plus coupled fluorescence assay, initial rates, non-linear regression on EhDPCK1

[4] = substrate: CC(C)(COP(=O)(O)OP(=O)(O)OC[C@H]1O[C@@H](n2cnc3c(N)ncnc32)[C@H](O)[C@@H]1O)[C@@H](O)C(=O)NCCC(=O)NCCS; assay: as above; assay type: biochemical, Entamoeba histolytica; conditions: 100 μM ATP; 4-128 μM dephospho-CoA; 15 mM Hepes, 20 mM NaCl, 1 mM EGTA, 10 mM MgCl2; remark: listed apart in the source
From the text: as §2

[5] = feedback inhibition at relatively high concentrations
[6] = product feedback inhibition at relatively high concentrations

Molecule: CC(=O)SCCNC(=O)CCNC(=O)[C@H](O)C(C)(C)COP(=O)(O)OP(=O)(O)OC[C@H]1O[C@@H](n2cnc3c(N)ncnc32)[C@H](O)[C@@H]1OP(=O)(O)O [acetyl-CoA]
- inhibition (EhDPCK2; [5]): Both EhDPCK1 and EhDPCK2 showed similar profiles of inhibition by CoA, acetyl-CoA, and malonyl-CoA
- inhibition (EhDPCK1; [5]): Both EhDPCK1 and EhDPCK2 showed similar profiles of inhibition by CoA, acetyl-CoA, and malonyl-CoA

Molecule: CC(C)(COP(=O)(O)OP(=O)(O)OC[C@H]1O[C@@H](n2cnc3c(N)ncnc32)[C@H](O)[C@@H]1OP(=O)(O)O)[C@@H](O)C(=O)NCCC(=O)NCCS [CoA]
- inhibition (EhDPCK2; [6]): Both EhDPCK1 and EhDPCK2 showed similar profiles of inhibition by CoA, acetyl-CoA, and malonyl-CoA
- inhibition (EhDPCK1; [6]): Both EhDPCK1 and EhDPCK2 showed similar profiles of inhibition by CoA, acetyl-CoA, and malonyl-CoA

Molecule: CC(C)(COP(=O)(O)OP(=O)(O)OC[C@H]1O[C@@H](n2cnc3c(N)ncnc32)[C@H](O)[C@@H]1OP(=O)(O)O)[C@@H](O)C(=O)NCCC(=O)NCCSC(=O)CC(=O)O [malonyl-CoA]
- inhibition (EhDPCK2; [5]): Both EhDPCK1 and EhDPCK2 showed similar profiles of inhibition by CoA, acetyl-CoA, and malonyl-CoA
- inhibition (EhDPCK1; [5]): Both EhDPCK1 and EhDPCK2 showed similar profiles of inhibition by CoA, acetyl-CoA, and malonyl-CoA

B1: EhDPCK2 (Entamoeba histolytica HM-1:IMSS) (protein)
chain: T1 sequence (C4LWC7 1-204)
notes: expressed in E. coli BL21(DE3), Ni-NTA purified
- Km [1]: 15.0 ± 2.4 µM
- Vmax [1]: 2.71 µmol/min/mg
- kcat [1]: 1.05 ± 0.0617 s⁻¹
- kcat/Km [1]: 70800 ± 12300 M⁻¹ s⁻¹
- Km [2]: 57.9 ± 6.07 µM
- Vmax [2]: 2.48 µmol/min/mg
- kcat [2]: 0.958 ± 0.0583 s⁻¹
- kcat/Km [2]: 16500 ± 1170 M⁻¹ s⁻¹

B2: EhDPCK1 (Entamoeba histolytica HM-1:IMSS) (protein)
chain: T2 sequence (C4MB67 1-206)
notes: as for B1
- Km [3]: 19.6 ± 1.2 µM
- Vmax [3]: 3.54 µmol/min/mg
- kcat [3]: 1.41 ± 0.04 s⁻¹
- kcat/Km [3]: 72000 ± 3830 M⁻¹ s⁻¹
- Km [4]: 114 ± 19 µM
- Vmax [4]: 3.71 µmol/min/mg
- kcat [4]: 1.48 ± 0.172 s⁻¹
- kcat/Km [4]: 13000 ± 667 M⁻¹ s⁻¹
